Substitutions are numbered along the chain they refer to. Numbers in names are those of the source.

Assay [1] relates to GST-BIR1, 2 fusion protein. In words: Interaction of purified recombinant proteins with GST-BIR1, 2 fusion protein. It is filed as binding, human. Particulars: purified C-terminal His6-tagged recombinant protein. An excerpt: (§1) FIGS. 7A and 7B are scanned images of Coomassie stained gels representing SDS-PAGE analysis of purified C-terminal His6-tagged recombinant wild type mature Omi (WT), Omi-ΔAVPS, Omi-S306A, and mature Smac (7A) and recombinant Omi and Smac proteins with GST-BIR1, GST-BIR2, GST-BIR3, or GST-BIR3-E314S fusion proteins (7B).
(§2) To determine whether a recombinant Omi lacking the first 133 residues (mature Omi) can interact with the GST-BIR3 fusion protein, this protein was expressed with a C-terminal His6 tag in bacteria and purified to apparent homogeneity (see FIG. 7B). […] FIGS. 7A and 7B show scanned images of Coomassie stained gels representing SDS-PAGE analysis of purified C-terminal His6-tagged recombinant wild type mature Omi (WT), Omi-ΔAVPS, Omi-S306A, and mature Smac (FIG. 7A) and recombinant Omi and Smac proteins with GST-BIR1, 2, GST-BIR3 or GST-BIR3-E314S fusion proteins (FIG. 7B).

The next assay deals with T1, GST-BIR3-E314S mutant (Homo sapiens, UniProt P98170, E314S).
T1 construct: Omi associates directly with the BIR3 domain of XIAP
Description: Interaction of purified recombinant proteins with GST-BIR3-E314S mutant. It is filed as binding. Particulars: purified C-terminal His6-tagged recombinant protein.
Excerpt: as §1
To confirm that Omi associates directly with the BIR3 domain of XIAP but not with the Smac protein, Smac was depleted from the 293 extracts using a Smac monoclonal antibody. Specifically, 293 cellular extracts were either left untreated (undepleted lane of FIG. 4) or depleted with a Smac antibody (lane depleted of FIG. 4). The undepleted and depleted extracts were incubated with the GST-BIR3 protein and the bound proteins were eluted as above. The eluates were then analyzed by far-western blotting with ^35S-XIAP and by western blotting with the Smac antibody as described above (see FIG. 4, left and right panels, respectively). […] The last lane of each panel in FIG. 4 represents the 293 cellular extracts that were bound to the E314S mutant GST-BIR3 fusion protein. […] The asterisk in FIG. 4 indicates non-specific bands and the arrow indicates the IgG band. […]

For assay [2], the target named is T2, GST-BIR3 fusion protein (BIR3 domain of human XIAP) (Homo sapiens, UniProt P98170).
T2 construct: Omi associates directly with the BIR3 domain of XIAP
In words: Interaction of purified recombinant proteins with GST-BIR3 fusion protein (SDS-PAGE, Coomassie). Type of assay: binding. The following applies: purified C-terminal His6-tagged recombinant protein; wild type GST-BIR3.
Excerpt: as §1, §2

Assay [3] addresses T3, caspase-9 interaction with XIAP (procaspase-3 activation) (Homo sapiens, UniProt P98170).
T3 construct: caspase-9: endogenous in 293T/HEK293 S100 extract
Description: Procaspase-3 activation in XIAP-containing S100 extracts stimulated with cytochrome c and dATP. It is filed as biochemical. Particulars: S100 extracts with purified XIAP, cytochrome c plus dATP; 10, 50 or 300 ng protein. As for the experimental part:
FIG. 17 is a scanned image of an autoradiogram, representing SDS-PAGE analysis of ^35S-labeled procaspase-3 following stimulation of 293T S100 extracts (20μg) mixed with purified XIAP (50 ng) with cytochrome c (0.5 μg) plus dATP (1 mM), in the presence of increasing amounts (10, 50, or 300 ng, respectively) of purified mature WT Omi, Omi-ΔAVPS, Omi-S306A, or mature Smac in 10 μl reaction volume. In the fifth lane, S100 extracts were incubated with. 300 ng of WT Omi without XIAP.
Next, it was determined whether Omi, like Smac, promotes caspase-9 activity in HEK293 S100 extracts in the presence of XIAP. To measure the caspase-9 activity in these extracts, ^35S-labeled procaspase-3 was added to the S100 extracts and stimulated the extracts with cytochrome c and dATP. […] These observations indicate that Omi, like Smac, is able to disrupt the interaction of caspase-9 with XIAP in the S100 extracts to promote procaspase-3 activation.

The target in another assay is T4, endogenous XIAP (Homo sapiens, UniProt P98170).
T4 construct: endogenous in cells; host or cells: 293T cells
In words: Co-immunoprecipitation with endogenous XIAP in transfected 293T cells. The following applies: 293T cells transfected with C-terminal Flag-tagged Omi precursors, XIAP western blot. Type of assay: cell-based. The source says:
FIG. 9 is a scanned image of a blot representing western blot analysis using an XIAP monoclonal antibody (upper panel) or Flag antibody (middle panel) of 293T cells transfected with constructs encoding C-terminal Flag-tagged Omi wild type or mutant precursors and immunoprecipitated with Flag antibody. The lower panel is a scanned image of a blot representing total extracts probed with the XIAP antibody. Arrows indicate IgG bands.
A general note: In western blotting, separated proteins are transferred to a membrane and probed.

For the next assay, the system named is Hela cells. Description: Staurosporine-induced apoptosis of Hela cells transfected with Omi precursor. It is filed as cell-based, human. Particulars: for apoptosis potentiation compared to vector-transfected cells: staurosporine, indicated or higher doses. As for the experimental part: FIG. 18 is a bar graphic representation of the percentages of GFP-positive apoptotic HeLa cells following treatment with the indicated doses of staurosporine for five hours, 24 hours after transfection. The Hela cells were transfected with an empty vector or a construct encoding a C-terminally Flag-tagged Omi precursor together with pEGFP-N1 plasmid (Clontech) at a 4:1 ratio. The AVPS motif in the […] Omi precursor is mutated to a VVAS sequence (SEQ ID NO:10) to prevent binding to IAPs. The Insert represents the expression of mature Omi wild type and Omi S306A mutant in the transfected cells as determined by immunoblotting with Flag antibody.
To determine whether release of Omi can potentiate apoptosis, human Hela cells were transfected with the Omi precursor, and the cells were stimulated with different doses of staurosporine.

T2 sequence (P98170 238-358 limits assumed): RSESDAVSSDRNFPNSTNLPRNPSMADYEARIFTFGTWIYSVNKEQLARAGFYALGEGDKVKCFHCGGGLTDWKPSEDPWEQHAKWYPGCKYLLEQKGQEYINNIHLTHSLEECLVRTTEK
T3 sequence (P98170 whole entry): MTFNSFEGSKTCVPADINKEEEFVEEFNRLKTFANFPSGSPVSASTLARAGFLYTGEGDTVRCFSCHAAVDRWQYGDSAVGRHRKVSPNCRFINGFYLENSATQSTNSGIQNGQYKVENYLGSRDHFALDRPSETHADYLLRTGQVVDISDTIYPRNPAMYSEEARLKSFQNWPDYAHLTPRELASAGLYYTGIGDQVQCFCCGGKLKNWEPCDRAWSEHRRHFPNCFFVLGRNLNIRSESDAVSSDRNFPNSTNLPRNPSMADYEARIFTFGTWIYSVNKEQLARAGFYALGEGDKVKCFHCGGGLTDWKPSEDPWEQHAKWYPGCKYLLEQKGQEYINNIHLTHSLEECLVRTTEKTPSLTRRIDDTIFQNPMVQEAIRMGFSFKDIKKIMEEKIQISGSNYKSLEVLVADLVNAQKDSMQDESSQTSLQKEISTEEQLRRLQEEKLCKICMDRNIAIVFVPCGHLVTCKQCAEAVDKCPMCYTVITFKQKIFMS
T1 sequence (P98170 238-358 E314S limits assumed): as the sequence (P98170 238-358 limits assumed) above, with E77S counted along it
T4 sequence (P98170 whole entry): as the sequence (P98170 whole entry) above
GST-BIR1, 2 fusion protein, sequence (P98170 124-240 limits assumed): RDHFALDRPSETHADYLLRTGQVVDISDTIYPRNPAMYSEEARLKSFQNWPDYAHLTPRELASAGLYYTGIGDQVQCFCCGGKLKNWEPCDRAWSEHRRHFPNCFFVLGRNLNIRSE

B1: Smac: mitochondrial IAP-binding protein; recombinant mature form with C-terminal His6 tag (protein, UniProt Q9NR28 22-239, looked up)
Diablo IAP-binding …: LCVPVVANFKKRCFSELIRPWHKTVTIGFGVTLCAVPIAQKSEPHSLSSEALMRRAVSLVTDSTSTFLSQTTYALIEAITEYTKAVYTLTSLYRQYTSLLGKMNSEEEDEVWQVIIGARAEMTSKHQEYLKLETTWMTAVGLSEMAAEAAYQTGADQASITARNHIQLVKLQVEEVHQLSRKAETKLAEAQIEELRQKTQEEGEERAESEQEAYLRED
modifications: C-terminal His6 tag
As to B1, in assay [1], the “interaction with GST-BIR1, 2 fusion protein” value is given as “able to interact with the GST-BIR1, 2 fusion protein”. Further, the “interaction with GST-BIR3-E314S mutant” value in the assay with GST-BIR3-E314S mutant was “not with the GST-BIR3-E314S mutant”. In addition, in assay [2], the “interaction with GST-BIR3 fusion protein” value is reported as “able to interact equally with the wild type GST-BIR3 protein”.

B2: Omi-S306A: recombinant mature Omi with active site Ser306 mutated to Ala, C-terminal His6 tag (protein)
chain: AVPSPPPASPRSQYNFIADVVEKTAPAVVYIEILDRHPFLGREVPISNGSGFVVAADGLIVTNAHVVADRRRVRVRLLSGDTYEAVVTAVDPVADIATLRIQTKEPLPTLPLGRSADVRQGEFVVAMGSPFALQNTITSGIVSSAQRPARDLGLPQTNVEYIQTDAAIDFGNAGGPLVNLDGEVIGVNTMKVTAGISFAIPSDRLREFLHRGEKKNSSSGISGSQRRYIGVMMLTLSPSILAELQLREPSFPDVQHGVLIHKVILGSPAHRAGLRPGDVILAIGEQMVQNAEDVYEAVRTQSQLAVQIRRGRETLTLYVTPEVTEHHHHHH
As to B2, the “promotion of procaspase-3 activation” value in assay [3] was “able to promote procaspase-3 activation in the XIAP-containing S100 extracts almost to the same extent as Smac”. Besides, the “interaction with GST-BIR3 fusion protein” value in assay [2] is on record as “did not affect its interaction with GST-BIR3”.

B3: AAAS: C-terminal Flag-tagged Omi precursor mutant with the AVPS motif mutated to AAAS (protein, UniProt O43464 1-458, looked up, variant V135A P136A)
chain: MAAPRAGRGAGWSLRAWRALGGIRWGRRPRLTPDLRALLTSGTSDPRARVTYGTPSLWARLSVGVTEPRACLTSGTPGPRAQLTAVTPDTRTREASENSGTRSRAWLAVALGAGGAVLLLLWGGGRGPPAVLAAAASPPPASPRSQYNFIADVVEKTAPAVVYIEILDRHPFLGREVPISNGSGFVVAADGLIVTNAHVVADRRRVRVRLLSGDTYEAVVTAVDPVADIATLRIQTKEPLPTLPLGRSADVRQGEFVVAMGSPFALQNTITSGIVSSAQRPARDLGLPQTNVEYIQTDAAIDFGNSGGPLVNLDGEVIGVNTMKVTAGISFAIPSDRLREFLHRGEKKNSSSGISGSQRRYIGVMMLTLSPSILAELQLREPSFPDVQHGVLIHKVILGSPAHRAGLRPGDVILAIGEQMVQNAEDVYEAVRTQSQLAVQIRRGRETLTLYVTPEVTE
modifications: full-length C-terminal Flag tag
Regarding B3, the “interaction with endogenous XIAP in vivo” value with endogenous XIAP was “abolished its interaction with endogenous XIAP”.

B4: active site Omi precursor mutant: S306A Omi precursor with mutant VVAS sequence instead of the AVPS motif (protein, UniProt O43464 1-458, looked up, variant A134V P136A S306A)
chain: B3 chain with A134V, A135V, S306A
modifications: full-length
For the molecule B4, the “apoptosis potentiation compared to vector-transfected cells” value in the assay with Hela cells (five hours) is recorded as “No apoptosis potentiation was observed”.

B5: Omi precursor: C-terminally Flag-tagged full-length Omi precursor (SEQ ID NO:1) expressed from a transfected construct (protein, listed as Homo sapiens)
chain: B3 chain with A135V, A136P
modifications: C-terminal Flag tag
As to B5, the “transfected cells showing signs of apoptosis” value with Hela cells (500 nM staurosporine, five hours, 24 hours after transfection, vector transfected cells ~20%) is given as around 43%. For the same molecule, the “apoptosis potentiation compared to vector-transfected cells” value in the assay with Hela cells (five hours) was “increased apoptosis was observed”. Moreover, the induction of apoptosis entry with Hela cells (transiently expressed, absence of staurosporine) was “did not induce apoptosis”.

B6: Omi-ΔAVPS: recombinant mature Omi with deletion of the AVPS motif, C-terminal His6 tag (protein)
chain: PPPASPRSQYNFIADVVEKTAPAVVYIEILDRHPFLGREVPISNGSGFVVAADGLIVTNAHVVADRRRVRVRLLSGDTYEAVVTAVDPVADIATLRIQTKEPLPTLPLGRSADVRQGEFVVAMGSPFALQNTITSGIVSSAQRPARDLGLPQTNVEYIQTDAAIDFGNSGGPLVNLDGEVIGVNTMKVTAGISFAIPSDRLREFLHRGEKKNSSSGISGSQRRYIGVMMLTLSPSILAELQLREPSFPDVQHGVLIHKVILGSPAHRAGLRPGDVILAIGEQMVQNAEDVYEAVRTQSQLAVQIRRGRETLTLYVTPEVTEHHHHHH
As to B6, in assay [3], the “promotion of procaspase-3 activation” value is on record as “abolished its caspase-promoting activity”. Besides, the “interaction with GST-BIR3 fusion protein” value in assay [2] was “completely abolished its interaction with the GST-BIR3 fusion protein”.

Source of the values: patent US20030073629A1, “Omi and domains thereof that disrupt IAP-caspase interaction” (priority 2001, published 2003).
